The record followed here is patent publication US20040131609A1 (published 2004).

Residue numbers refer to the chain shown, from its start.

B1: clone 3 (PFFF) (Fab, V domains shown)
VH: QVTLRESGPALVKPTQTLTLTCTFSGFSLSTPGMSVGWIRQPPGKALEWLADIWWDDKKDYNPSLKSRLTISKDTSKNQVVLKVTNMDPADTATYYCARSMITNFYFDVWGQGTTVTVSS
VL: DIQMTQSPSTLSASVGDRVTITCSASSSVGYMHWYQQKPGKAPKLLIYDTFKLASGVPSRFSGSGSGTEFTLTISSLQPDDFATYYCFQGSFYPFTFGGGTKVEIK
B2: clone 9 (PFSW) (antibody, V domains shown)
VH: B1 VH
VL: B1 VL with F51S, F92W
B3: clone 13 (SFFF) (antibody, V domains shown)
VH: B1 VH with P32S
VL: B1 VL
B4: clone 17 (PWSW) (antibody, V domains shown)
VH: B1 VH with F105W
VL: B1 VL with F51S, F92W
B5: clone 20 (SFSF) (antibody, V domains shown)
VH: B1 VH with P32S
VL: B1 VL with F51S
B6: clone 15 (AFSG) (antibody, V domains shown)
VH: B1 VH with P32A
VL: B1 VL with F51S, F92G
B7: clone 5 (PFFW) (antibody, V domains shown)
VH: B1 VH
VL: B1 VL with F92W
B8: clone 18 (SFFG) (antibody, V domains shown)
VH: B1 VH with P32S
VL: B1 VL with F92G
B9: clone 7 (PFFG) (antibody, V domains shown)
VH: B1 VH
VL: B1 VL with F92G
B10: clone 19 (SFSW) (antibody, V domains shown)
VH: B1 VH with P32S
VL: B1 VL with F51S, F92W
B11: clone 4 (PFFY) (antibody, V domains shown)
VH: B1 VH
VL: B1 VL with F92Y
B12: clone 6 (PFYF) (antibody, V domains shown)
VH: B1 VH
VL: B1 VL with F51Y
B13: clone 10 (PFSF) (antibody, V domains shown)
VH: B1 VH
VL: B1 VL with F51S
B14: clone 1 (AFSF) (Fab, V domains shown)
VH: B1 VH with P32A
VL: B1 VL with F51S
B15: clone 14 (SFFW) (antibody, V domains shown)
VH: B1 VH with P32S
VL: B1 VL with F92W
B16: clone 16 (PFSG) (antibody, V domains shown)
VH: B1 VH
VL: B1 VL with F51S, F92G
B17: clone 2 (AFFG) (Fab, V domains shown)
VH: B1 VH with P32A
VL: B1 VL with F92G
B18: reference antibody IX-493 (SWSG) (Fab, V domains shown)
VH: B1 VH with P32S, F105W
VL: B1 VL with F51S, F92G
notes: also called Basic; basic antibody
B19: clone 21 (SWYF) (antibody, V domains shown)
VH: B1 VH with P32S, F105W
VL: B1 VL with F51Y
B20: clone 11 (PWFW) (antibody, V domains shown)
VH: B1 VH with F105W
VL: B1 VL with F92W
B21: clone 12 (PWFF) (antibody, V domains shown)
VH: B1 VH with F105W
VL: B1 VL

This test deals with T1, RSV F antigen (respiratory syncytial virus (RSV), UniProt P03420 26-524).
T1 construct: also called F antigen of RSV; RSV F protein
T1 sequence (P03420 26-524): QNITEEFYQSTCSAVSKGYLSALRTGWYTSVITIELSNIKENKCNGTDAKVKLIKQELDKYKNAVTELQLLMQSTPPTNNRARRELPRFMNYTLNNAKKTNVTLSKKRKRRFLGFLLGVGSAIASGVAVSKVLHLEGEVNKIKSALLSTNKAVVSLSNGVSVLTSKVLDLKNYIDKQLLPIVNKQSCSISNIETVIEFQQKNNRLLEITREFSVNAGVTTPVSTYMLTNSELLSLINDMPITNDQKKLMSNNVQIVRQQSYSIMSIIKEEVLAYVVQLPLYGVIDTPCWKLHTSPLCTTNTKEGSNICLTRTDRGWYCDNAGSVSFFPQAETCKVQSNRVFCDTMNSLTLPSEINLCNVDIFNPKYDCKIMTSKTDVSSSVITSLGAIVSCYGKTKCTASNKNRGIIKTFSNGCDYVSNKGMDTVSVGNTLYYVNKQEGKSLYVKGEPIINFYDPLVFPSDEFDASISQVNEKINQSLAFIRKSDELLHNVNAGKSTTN
The experiment in a line: antibody titration ELISA on 500 ng RSV F antigen; qualitative score from titration curves.
For the molecule B1, the “Ag Score” value was 4 arbitrary score (0-4).

As for B2, the “Ag Score” value is 3 arbitrary score (0-4).

Turning to B3, the “Ag Score” value was 2.5 arbitrary score (0-4).

As for B4, the “Ag Score” value was 2 arbitrary score (0-4).

As to B5, the “Ag Score” value is 2 arbitrary score (0-4).

As to B6, the “Ag Score” value is 2.5 arbitrary score (0-4).

Consider B7, for which the “Ag Score” value was 3.5 arbitrary score (0-4).

For B8, the “Ag Score” value is 2 arbitrary score (0-4).

For B9, the “Ag Score” value is 3 arbitrary score (0-4).

As for B10, the “Ag Score” value is 2 arbitrary score (0-4).

Regarding B11, the “Ag Score” value is 3.5 arbitrary score (0-4).

Regarding B12, the “Ag Score” value was 3.5 arbitrary score (0-4).

B13: the “Ag Score” value is 3 arbitrary score (0-4).

As for B14, the “Ag Score” value was 4 arbitrary score (0-4).

As to B15, the “Ag Score” value is 2.5 arbitrary score (0-4).

On to B16, for which the “Ag Score” value is 2 arbitrary score (0-4).

Take B17: the “Ag Score” value was 4 arbitrary score (0-4).

B18: the “Ag Score” value was 0.1 arbitrary score (0-4).

In the case of B19, the “Ag Score” value is 2 arbitrary score (0-4).

On to B20, for which the “Ag Score” value was 3 arbitrary score (0-4).

B21: the “Ag Score” value was 2.5 arbitrary score (0-4).
